The target of this series is MipZ dimer. Briefly: Effect of ParB and parS-containing plasmid DNA on the ATPase activity of MipZ. It counts as biochemical, Caulobacter crescentus. The note with it: for Kd: read-out: K. The source says:
Figure 3 Interaction of MipZ with FtsZ and ParB (A) Effect of different mutations on the activity of MipZ. Strains MT177 (WT), DK2 (K13A), MT178 (G14V), MT179 (K18Q), and MT197 (D42A) were cultivated for 8 hr in conditions that prevent expression of wild-type mipZ while inducing expression of the indicated mipZ-yfp allele (the scale bar represents 2 μm). (B) Effect of MipZ and its mutant derivatives on the GTPase activity of FtsZ. Shown are the turnover numbers (kcat) of FtsZ in the absence of additional proteins (–) or in the presence of different MipZ variants or BSA. Data represent the average of at least three independent experiments (±SD). (C and D) SPR analysis of the interaction between MipZ and ParB. ParB (3800 RU) was immobilized on a sensor chip and probed with the indicated MipZ proteins (6 μM) in the presence of ADP (C) or ATP (D). (E) Colocalization of mutant MipZ variants with ParB. Strains DK3 (K13A), DK5 (G14V), DK6 (K18Q), and DK7 (D42A) were induced for 8 hr to synthesize CFP-ParB and the indicated MipZ-YFP variants in place of wild-type MipZ (the scale bar represents 2 μm). […] (F) Two-hybrid analysis of the interaction between MipZ and ParB. E. coli BTH101 was transformed with pairs of plasmids encoding the indicated derivatives of the T18 and T25 fragments of adenylate cyclase, respectively. Interaction is evidenced by the formation of red colonies. Positive control (+): T25-zip:T18-zip. (G) Effect of ParB on the ATPase activity of MipZ. The average turnover number (kapp) of MipZ was determined over a range of different MipZ concentrations. When appropriate, the reactions were supplemented with ParB and/or parS-containing plasmid DNA (pMT428; 3.6 kb). The data were approximated by the model used in Figure 2F, yielding the following K and kcat values: MipZ alone (7.1 μM and 0.61 min^−1), + ParB (2.6 μM and 0.77 min^−1), + DNA (6.0 μM and 1.5 min^−1), + ParB and DNA (1.6 μM and 1.6 min^−1). See also Figure S4.
Previous work has shown that, in the presence of parS-containing DNA, ParB stimulates the ATPase activity of ParA/Soj up to 60-fold ([Leonard et al., 2005; Scholefield et al., 2011]), probably by accelerating the rate of nucleotide hydrolysis. […] To clarify this issue, we reanalyzed the concentration dependence of MipZ's ATPase activity (compare Figure 2F) in the presence of both ParB and/or a plasmid that carried a chromosomal fragment containing all predicted C. crescentus parS sites (Figure 3G). […] Consequently, the MipZ dimer might be able to interact with DNA independently of ParB (as detailed below), leading to conformational adjustments that enhance its hydrolytic potential. […] Collectively, these findings argue against a role of ParB as an ATPase-activating factor. […]
obtained from crystals flash frozen in a solution of 95% 2 mM, sa mp le s were taken and analyzed for the amount ethanol/50 mM Tris (pH 8.5), and collected at ID23-2, of [α-32P]-GDP produced in the reaction as described ESRF (Grenoble, France). For apo-MipZ in crystal above. form 2, 768 standard conditions were screened in 200 nl To analyze the concentration dependence of MipZ’s sitting drops using a Microsys 4004 Cartesian robotics ATPase activity, varying amounts of MipZ were system and MipZ at a concentration of 10 mg/ml. incubated in buffer P containing 2 mM [α-32P]-ATP and Crystals obtained in a buffer containing 100 mM Hepes 0.3 mg/ml bovine serum albumin and assayed for (pH 7.5), 10% PEG 10000, 4% ethylene glycol and 30% hydrolytic activity as described above. glycerol were flash-frozen, and data were collected at To determine the effect of ParB on MipZ’s ATPase ID23-1, ESRF. activity, varying amounts of MipZ were incubated with All crystals were indexed and integrated using the ParB (4.5 µM) and/or plasmid pMT428 (3.6 kb, 0.2 MOSFLM package and further processed using the µM), which bears a chromosomal fragment containing […]

The values below come from publication PMC3355305, “Localized Dimerization and Nucleoid Binding Drive Gradient Formation by the Bacterial Cell Division Inhibitor MipZ” (Molecular Cell, 2012).

For orientation: kcat means the maximal rate divided by the concentration of active sites.

Like-named read-outs stand apart in the source and are kept apart here.

B1: MipZ: P loop ATPase and cell division inhibitor of Caulobacter crescentus; hexahistidine-tagged in vitro, YFP fusion in FRAP (protein)
chain: MAETRVIVVGNEKGGAGKSTIAVHLVTALLYGGAKVAVIDLDLRQRTSARFFENRRAWLDNKKIELPEPLALNLSDNDVALAERPEEEQVAGFEAAFARAMAECDFILIDTPGGDSAITRMAHGRADLVVTPMNDSFVDFDMLGTVDPVTLELTKPSLYSLTVWEGRKQRALSGQRQAMDWVVLRNRLATTEARNRKRLEDRLNALAKRVGFRIGPGLRDRVIYRELFPFGLTIADLSPQVRPVPVSLQHLAARQELRALMHSLGLSAYSGETMLAAQ
modifications: left off: His6, end not stated, state not stated
notes: hexahistidine-tagged in vitro, YFP fusion in FRAP
For B1, the Kd runs as follows: (+ DNA (pMT428, 0.2 µM)) 6 µM; (+ ParB (4.5 µM)) 2.6 µM; (+ ParB and DNA) 1.6 µM; (MipZ alone) 7.1 µM. Further, the kcat (MipZ alone) came to 0.0102 s⁻¹. For the same molecule, for the setting “upon addition of DNA”, the “increase in the catalytic activity of the dimeric complex (kcat)” value is around 2 fold. Moreover, the “decrease in the apparent equilibrium dissociation constant of the dimeric complex” value (upon addition of ParB) is reported as around 4 fold.
